Assay results published in US20180037644A1 (Pfizer, published 2018).
Read-outs that look alike come from different tables or passages of the source. Each block holds one binder with its values, some of them ahead of it.

How the values were obtained:
human IL-33 (mm2) [1] = target: T1, human IL-33 (mm2) (human, UniProt O95760 112-270); experiment: cell-based or functional assay
T1 chain: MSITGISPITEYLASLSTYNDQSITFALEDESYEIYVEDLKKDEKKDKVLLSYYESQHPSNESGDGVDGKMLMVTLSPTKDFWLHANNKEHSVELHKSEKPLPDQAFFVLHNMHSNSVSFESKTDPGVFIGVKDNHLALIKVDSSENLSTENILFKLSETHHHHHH

[2] = target: T2, cynomolgus monkey IL-33 (cys mut) (cynomolgus monkey); experiment: cell-based or functional assay
T2 chain: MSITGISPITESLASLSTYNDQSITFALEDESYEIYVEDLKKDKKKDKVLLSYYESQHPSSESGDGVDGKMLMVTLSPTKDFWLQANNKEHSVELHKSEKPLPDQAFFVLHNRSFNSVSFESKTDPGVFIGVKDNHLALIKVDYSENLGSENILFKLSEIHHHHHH

human IL-33 (mm2) [3] = target: T1, human IL-33 (mm2); experiment: SPR, IgG captured by anti-human Fc, IL-33 in solution
Experimental: (§1) Binding to human and cynomolgus monkey IL-33 was measured by surface plasmon resonance using a BIAcore T200 instrument. An anti-human Fc antibody was immobilized on a CM5 chip, and anti-IL-33 antibodies were captured.

[4] = target: T2, cynomolgus monkey IL-33 (cys mut); experiment: as above
Experimental: as §1

human IL-33 (mm2) [5] = target: T1, human IL-33 (mm2); experiment: cell-based or functional assay
[6] = target: T3, native human IL-33 from human lung fibroblast (HFL-1) lysate (human, UniProt O95760 1-270, limits assumed); experiment: cell-based or functional assay
T3 sequence (looked up): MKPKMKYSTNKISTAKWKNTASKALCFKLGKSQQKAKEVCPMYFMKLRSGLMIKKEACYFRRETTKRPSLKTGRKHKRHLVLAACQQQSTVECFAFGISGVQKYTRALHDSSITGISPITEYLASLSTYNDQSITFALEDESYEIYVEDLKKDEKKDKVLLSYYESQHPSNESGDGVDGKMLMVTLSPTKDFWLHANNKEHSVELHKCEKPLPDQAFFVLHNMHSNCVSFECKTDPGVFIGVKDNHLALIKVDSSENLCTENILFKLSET

human IL-33 (mm2) [7] = target: T1, human IL-33 (mm2); experiment: cell-based or functional assay
[8] = target: T2, cynomolgus monkey IL-33 (cys mut); experiment: cell-based or functional assay
human IL-33 (mm2) [9] = target: T1, human IL-33 (mm2); experiment: cell-based or functional assay
[10] = target: T2, cynomolgus monkey IL-33 (cys mut); experiment: cell-based or functional assay
human IL-33 (mm2) [11] = target: T1, human IL-33 (mm2); experiment: cell-based or functional assay
human IL-33 WT (R&D) = target: T4, human IL-33 WT (R&D) (human, UniProt O95760 112-270); experiment: cell-based or functional assay
T4 sequence: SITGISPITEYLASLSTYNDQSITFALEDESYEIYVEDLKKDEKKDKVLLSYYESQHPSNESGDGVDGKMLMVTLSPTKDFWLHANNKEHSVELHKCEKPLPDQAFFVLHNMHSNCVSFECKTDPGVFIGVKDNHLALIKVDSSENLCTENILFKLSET

B1: 30B11 CDR graft (antibody, human IgG1, kappa, V domains shown)
VH: EVQLVESGGGLVQPGGSLRLSCAASGFTFTDYWVSWVRQAPGKGLEWVAEIYPNSGADNFNENFKGRFTISRDNAKNSLYLQMNSLRAEDTAVYYCARGPYYYSTQIIFAYWGQGTLVTVSS
VL: DIQMTQSPSSLSASVGDRVTITCKASQNVGNNLAWYQQKPGKAPKLLIYYASNRYTGVPSRFSGSGSGTDFTLTISSLQPEDFATYYCQRIYNSPPTFGGGTKVEIKR
IC50, HEK293 ST2 NFkB (human IL-33 (mm2) [1]): 0.368 nM

B2: 30B11 CDR graft_R71V (antibody, human IgG1, kappa, V domains shown)
VH: EVQLVESGGGLVQPGGSLRLSCAASGFTFTDYWVSWVRQAPGKGLEWVAEIYPNSGADNFNENFKGRFTISVDNAKNSLYLQMNSLRAEDTAVYYCARGPYYYSTQIIFAYWGQGTLVTVSS
VL: DIQMTQSPSSLSASVGDRVTITCKASQNVGNNLAWYQQKPGKAPKLLIYYASNRYTGVPSRFSGSGSGTDFTLTISSLQPEDFATYYCQRIYNSPPTFGGGTKVEIKR
IC50, HEK293 ST2 NFkB (human IL-33 (mm2) [1]): 0.278 nM

B3: 14D8 chimera/hu J (antibody, human IgG1, kappa, V domains shown)
VH: EVQLVDSGGDQVQPGRSLKLSCVASGFIFKNYWMTWIRQVPGKGLEWIASITNSGGNTYYPDSVKGRFTISRDNAKDTLYLQMNSLRSEDTATYYCARDRRYNSGSPFAYWGQGTLVTVSS
VL: DIQLTQSPSTLPASLGERVTISCRTSQSINNNLCWYQQKPDGTVKRLIYSTSTLESGVPSRFSGSGSGTDYSLSISSLESQDFAMYYCLQYATYPWTFGQGTKVEIKR
notes: also called 14D8 huJseg
% inhibition at 20 nM, HEK293 ST2 NFkB [2]: 11%
Kd (human IL-33 (mm2) [3]): 0.394 nM
binding result [4]: no binding (tested: 125 nM)
IC50, HEK293 ST2 NFkB (human IL-33 (mm2) [5]): 2.03 nM
% inhibition 0.1 nM Ab, HEK293 ST2 NFkB [6]: 61.1%
% inhibition 1 nM Ab, HEK293 ST2 NFkB [6]: 99.6%
% inhibition 10 nM Ab, HEK293 ST2 NFkB [6]: 107%

B4: 12F9 chimera (antibody, human IgG1, kappa, V domains shown)
VH: EVQLVESGGDLVQPGRSLKLSCVTSGFIFKNYWMTWIRQVPGKGLEWVASITNTGGATYYPDSVKGRFTISRDNSENTLYLQMNSLRSEDTATYYCARDRRYNSGSPFAYWGQGTLVTVSS
VL: DIQLTQSPSTLAASLGERVTISCRASQSISNSLIWFQQKPDGTIKRLIYSSSTLESGVPSRFSGSGSGTDYSLSISSLESEDFAMYYCLQYATYPWTFGGGTKLELRR
notes: also called chimeric 12F9
% inhibition at 20 nM, HEK293 ST2 NFkB [2]: 3.6%
Kd (human IL-33 (mm2) [3]): 0.408 nM
binding result [4]: no binding (tested: 125 nM)
IC50, HEK293 ST2 NFkB (human IL-33 (mm2) [5]): 2.71 nM
% inhibition 0.1 nM Ab, HEK293 ST2 NFkB [6]: 44.3%
% inhibition 1 nM Ab, HEK293 ST2 NFkB [6]: 82.6%
% inhibition 10 nM Ab, HEK293 ST2 NFkB [6]: 104%

B5: 30B11 chimera/hu J (antibody, human IgG1, kappa, V domains shown)
VH: QVKLLQSGAALVKPGASVKMSCATSGFSFTDYWVSWVKQSHGKGLEWIGEIYPNSGADNFNENFKGKATLTVDKSTSTAYMELSRLTSEDSAIYYCTRGPYYYSTQIIFAYWGQGTLVTVSS
VL: NIVMTQSPKSMSISVGDRVTMNCKASQNVGNNLAWYQQKPGQSPKLLIYYASNRYTGVPDRFTGGGYGTDFTLTINSVQAEDAAFYYCQRIYNSPPTFGGGTKVEIKR
notes: also called 30B11 hu Jseg
IC50, HEK293 ST2 NFkB [2]: 0.11 nM
Kd (human IL-33 (mm2) [3]): 0.367 nM
Kd [4]: 0.148 nM
IC50, HEK293 ST2 NFkB (human IL-33 (mm2) [5]): 0.028 nM
% inhibition 0.1 nM Ab, HEK293 ST2 NFkB [6]: 102%
% inhibition 1 nM Ab, HEK293 ST2 NFkB [6]: 109%
% inhibition 10 nM Ab, HEK293 ST2 NFkB [6]: 110%

B8: 9B3 CDR graft (antibody, human IgG1, kappa, V domains shown)
VH: EVQLVESGGGLVQPGGSLRLSCAASGFTFSNYWMYWVRQAPGKGLEWVASINNDGGNTYYLDSVKGRFTISRDNAKNSLYLQMNSLRAEDTAVYYCARGHYSYSSYSFSYWGQGTLVTVSS
VL: DIQMTQSPSSLSASVGDRVTITCKASHNINKHLDWYQQKPGKAPKLLIYFTNNLQTGVPSRFSGSGSGTDFTLTISSLQPEDFATYYCFQYNSGWTFGGGTKVEIKR
IC50, HEK293 ST2 NFkB (human IL-33 (mm2) [1]): 0.52 nM

Results, then the binder that gave them:

IC50, HEK293 ST2 NFkB (human IL-33 (mm2) [7]): 0.17 nM
IC50, HEK293 ST2 NFkB [8]: 2.72 nM
% inhibition at 20 nM, HEK293 ST2 NFkB [2]: 23%
IC50, HEK293 ST2 NFkB (human IL-33 (mm2) [5]): 0.076 nM
% inhibition 0.1 nM Ab, HEK293 ST2 NFkB [6]: 55.1%
% inhibition 1 nM Ab, HEK293 ST2 NFkB [6]: 99.2%
% inhibition 10 nM Ab, HEK293 ST2 NFkB [6]: 108%
B6: rat 9B3 (9B3 hybridoma) (antibody, V domains shown)
VH: EVQLVETGGGLVQPGRSLKLSCVASGFTFSNYWMYWIRQAPGMGLEWVSSINNDGGNTYYLDSVKGRFTISRNNAENTVYLQMNSLRSEDTATYYCAKGHYSYSSYSFSYWGQGTLVTVSS
VL: DIQMTQSPSVLSASVGDRVTLSCKASHNINKHLDWCQQKVGEAPKLLIYFTNNLQTGIPSRFSGSGSGTDYTLTISSLQPEDVATYFCFQYNSGWTFGGGTKLELK

IC50, HEK293 ST2 NFkB (human IL-33 (mm2) [9]): 0.09 nM
IC50, HEK293 ST2 NFkB [10]: 0.204 nM
B7: IL33-11 (antibody, human IgG1, kappa, V domains shown)
VH: EVQLVESGGGLVQPGGSLRLSCAASGFTFSNYWMYWVRQAPGKGLEWVASITPNGGNTYYPDSVKGRFTISRDNAKNSLYLQMNSLRAEDTAVYYCARGHYYYTSYSLGYWGQGTLVTVSS
VL: DIQMTQSPSSLSASVGDRVTITCKASQNINKHLDWYQQKPGKAPKLLIYFTNNLQTGVPSRFSGSGSGTDFTLTISSLQPEDFATYYCFQYNNGWTFGGGTKVEIKR

IC50, HEK293 ST2 NFkB (human IL-33 (mm2) [9]): 0.22 nM
IC50, HEK293 ST2 NFkB [10]: 7.65 nM
B9: IL33-13 (antibody, human IgG1, kappa, V domains shown)
VH: EVQLVESGGGLVQPGGSLRLSCAASGFTFSSYWMYWVRQAPGKGLEWVASITPNGGNTYYPDSVKGRFTISRDNAKNSLYLQMNSLRAEDTAVYYCARGHYSYSSYSFSYWGQGTLVTVSS
VL: DIQMTQSPSSLSASVGDRVTITCKASQNINKHLDWYQQKPGKAPKLLIYFTNNLQTGVPSRFSGSGSGTDFTLTISSLQPEDFATYYCFQYNNGWTFGGGTKVEIKR

IC50, HEK293 ST2 NFkB (human IL-33 (mm2) [11]): 0.095 nM
IC50, HEK293 ST2 NFkB (human IL-33 WT (R&D)): 0.62 nM
B10: IL33-158-152 (antibody, human IgG1, kappa)
heavy: EVQLVESGGGLVQPGGSLRLSCAASGFTFSSYWMYWVRQAPGKGLEWVAAITPNAGEDYYPESVKGRFTISRDNAKNSLYLQMNSLRAEDTAVYYCARGHYYYTSYSLGYWGQGTLVTVSSASTKGPSVFPLAPSSKSTSGGTAALGCLVKDYFPEPVTVSWNSGALTSGVHTFPAVLQSSGLYSLSSVVTVPSSSLGTQTYICNVNHKPSNTKVDKKVEPKSCDKTHTCPPCPAPEAAGAPSVFLFPPKPKDTLMISRTPEVTCVVVDVSHEDPEVKFNWYVDGVEVHNAKTKPREEQYNSTYRVVSVLTVLHQDWLNGKEYKCKVSNKALPAPIEKTISKAKGQPREPQVYTLPPSREEMTKNQVSLTCLVKGFYPSDIAVEWESNGQPENNYKTTPPVLDSDGSFFLYSKLTVDKSRWQQGNVFSCSVMHEALHNHYTQKSLSLSPG
light: DIQMTQSPSSLSASVGDRVTITCKASQNINKHLDWYQQKPGKAPKLLIYFTNNLQTGVPSRFSGSGSGTDFTLTISSLQPEDFATYYCFQYNQGWTFGGGTKVEIKRTVAAPSVFIFPPSDEQLKSGTASVVCLLNNFYPREAKVQWKVDNALQSGNSQESVTEQDSKDSTYSLSSTLTLSKADYEKHKVYACEVTHQGLSSPVTKSFNRGEC

IC50, HEK293 ST2 NFkB (human IL-33 (mm2) [11]): 0.129 nM
IC50, HEK293 ST2 NFkB (human IL-33 WT (R&D)): 0.749 nM
B11: IL33-167-153 (antibody, human IgG1, kappa)
heavy: EVQLVESGGGLVQPGGSLRLSCAASGFTFSSYWMYWVRQAPGKGLEWVASITPNAGEDYYPDSVKGRFTISRDNAKNSLYLQMNSLRAEDTAVYYCARGHYYYTSYSLGYWGQGTLVTVSSASTKGPSVFPLAPSSKSTSGGTAALGCLVKDYFPEPVTVSWNSGALTSGVHTFPAVLQSSGLYSLSSVVTVPSSSLGTQTYICNVNHKPSNTKVDKKVEPKSCDKTHTCPPCPAPEAAGAPSVFLFPPKPKDTLMISRTPEVTCVVVDVSHEDPEVKFNWYVDGVEVHNAKTKPREEQYNSTYRVVSVLTVLHQDWLNGKEYKCKVSNKALPAPIEKTISKAKGQPREPQVYTLPPSREEMTKNQVSLTCLVKGFYPSDIAVEWESNGQPENNYKTTPPVLDSDGSFFLYSKLTVDKSRWQQGNVFSCSVMHEALHNHYTQKSLSLSPG
light: DIQMTQSPSSLSASVGDRVTITCKASQNINKHLDWYQQKPGKAPKLLIYFTNNLQTGVPSRFSGSGSGTDFTLTISSLQPEDFATYYCFQYNNGWTFGGGTKVEIKRTVAAPSVFIFPPSDEQLKSGTASVVCLLNNFYPREAKVQWKVDNALQSGNSQESVTEQDSKDSTYSLSSTLTLSKADYEKHKVYACEVTHQGLSSPVTKSFNRGEC
